Experimental data published in patent US20210388087A1 (Chugai, published 2021).

T1: Human CD3eg linker (human)
T1 construct: Single-chain construct; also called recombinant human CD3
T1 chain: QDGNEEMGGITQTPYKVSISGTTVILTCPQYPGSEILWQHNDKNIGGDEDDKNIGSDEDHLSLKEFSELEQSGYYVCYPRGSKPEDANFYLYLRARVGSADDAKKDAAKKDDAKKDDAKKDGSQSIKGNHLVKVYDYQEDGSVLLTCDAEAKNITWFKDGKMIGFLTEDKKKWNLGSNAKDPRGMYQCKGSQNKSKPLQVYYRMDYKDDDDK

B1: H183/L072 VL V51M (antibody, name in Kabat numbering, V domains shown)
VH: QVQLVESGGGLVQPGRSLRLSCAASGFTFSNAWMHWVRQAPGKGLEWVAQIKDKGNAYAAYYAPSVKGRFTISRDDSKNSIYLQMNSLKTEDTAVYYCHYVHYASASTVLPAFGVDAWGQGTTVTVSS
VL: DIVMTQSPLSLPVTPGEPASISCQASQELVHMNRNTYLHWYQQKPGQAPRLLIYKMSNRFPGVPDRFSGSGSGTDFTLKISRVEAEDVGVYYCAQGTSVPFTFGQGTKLEIK
B2: H183/L072 VL V94N (antibody, name in Kabat numbering, V domains shown)
VH: QVQLVESGGGLVQPGRSLRLSCAASGFTFSNAWMHWVRQAPGKGLEWVAQIKDKGNAYAAYYAPSVKGRFTISRDDSKNSIYLQMNSLKTEDTAVYYCHYVHYASASTVLPAFGVDAWGQGTTVTVSS
VL: DIVMTQSPLSLPVTPGEPASISCQASQELVHMNRNTYLHWYQQKPGQAPRLLIYKVSNRFPGVPDRFSGSGSGTDFTLKISRVEAEDVGVYYCAQGTSNPFTFGQGTKLEIK
B3: H183/L072 VL V94Q (antibody, name in Kabat numbering, V domains shown)
VH: QVQLVESGGGLVQPGRSLRLSCAASGFTFSNAWMHWVRQAPGKGLEWVAQIKDKGNAYAAYYAPSVKGRFTISRDDSKNSIYLQMNSLKTEDTAVYYCHYVHYASASTVLPAFGVDAWGQGTTVTVSS
VL: DIVMTQSPLSLPVTPGEPASISCQASQELVHMNRNTYLHWYQQKPGQAPRLLIYKVSNRFPGVPDRFSGSGSGTDFTLKISRVEAEDVGVYYCAQGTSQPFTFGQGTKLEIK
B4: H183/L072 VL V94E (antibody, name in Kabat numbering, V domains shown)
VH: QVQLVESGGGLVQPGRSLRLSCAASGFTFSNAWMHWVRQAPGKGLEWVAQIKDKGNAYAAYYAPSVKGRFTISRDDSKNSIYLQMNSLKTEDTAVYYCHYVHYASASTVLPAFGVDAWGQGTTVTVSS
VL: DIVMTQSPLSLPVTPGEPASISCQASQELVHMNRNTYLHWYQQKPGQAPRLLIYKVSNRFPGVPDRFSGSGSGTDFTLKISRVEAEDVGVYYCAQGTSEPFTFGQGTKLEIK
B5: H183/L072 VL V94D (antibody, name in Kabat numbering, V domains shown)
VH: QVQLVESGGGLVQPGRSLRLSCAASGFTFSNAWMHWVRQAPGKGLEWVAQIKDKGNAYAAYYAPSVKGRFTISRDDSKNSIYLQMNSLKTEDTAVYYCHYVHYASASTVLPAFGVDAWGQGTTVTVSS
VL: DIVMTQSPLSLPVTPGEPASISCQASQELVHMNRNTYLHWYQQKPGQAPRLLIYKVSNRFPGVPDRFSGSGSGTDFTLKISRVEAEDVGVYYCAQGTSDPFTFGQGTKLEIK
B6: H183/L072 VL V51T (antibody, name in Kabat numbering, V domains shown)
VH: QVQLVESGGGLVQPGRSLRLSCAASGFTFSNAWMHWVRQAPGKGLEWVAQIKDKGNAYAAYYAPSVKGRFTISRDDSKNSIYLQMNSLKTEDTAVYYCHYVHYASASTVLPAFGVDAWGQGTTVTVSS
VL: DIVMTQSPLSLPVTPGEPASISCQASQELVHMNRNTYLHWYQQKPGQAPRLLIYKTSNRFPGVPDRFSGSGSGTDFTLKISRVEAEDVGVYYCAQGTSVPFTFGQGTKLEIK
B7: H183/L072 VL V51S (antibody, name in Kabat numbering, V domains shown)
VH: QVQLVESGGGLVQPGRSLRLSCAASGFTFSNAWMHWVRQAPGKGLEWVAQIKDKGNAYAAYYAPSVKGRFTISRDDSKNSIYLQMNSLKTEDTAVYYCHYVHYASASTVLPAFGVDAWGQGTTVTVSS
VL: DIVMTQSPLSLPVTPGEPASISCQASQELVHMNRNTYLHWYQQKPGQAPRLLIYKSSNRFPGVPDRFSGSGSGTDFTLKISRVEAEDVGVYYCAQGTSVPFTFGQGTKLEIK
B8: H183/L072 VL V94S (antibody, name in Kabat numbering, V domains shown)
VH: QVQLVESGGGLVQPGRSLRLSCAASGFTFSNAWMHWVRQAPGKGLEWVAQIKDKGNAYAAYYAPSVKGRFTISRDDSKNSIYLQMNSLKTEDTAVYYCHYVHYASASTVLPAFGVDAWGQGTTVTVSS
VL: DIVMTQSPLSLPVTPGEPASISCQASQELVHMNRNTYLHWYQQKPGQAPRLLIYKVSNRFPGVPDRFSGSGSGTDFTLKISRVEAEDVGVYYCAQGTSSPFTFGQGTKLEIK
B9: H183/L072 VL V94H (antibody, name in Kabat numbering, V domains shown)
VH: QVQLVESGGGLVQPGRSLRLSCAASGFTFSNAWMHWVRQAPGKGLEWVAQIKDKGNAYAAYYAPSVKGRFTISRDDSKNSIYLQMNSLKTEDTAVYYCHYVHYASASTVLPAFGVDAWGQGTTVTVSS
VL: DIVMTQSPLSLPVTPGEPASISCQASQELVHMNRNTYLHWYQQKPGQAPRLLIYKVSNRFPGVPDRFSGSGSGTDFTLKISRVEAEDVGVYYCAQGTSHPFTFGQGTKLEIK
B10: H183/L072 VL V94M (antibody, name in Kabat numbering, V domains shown)
VH: QVQLVESGGGLVQPGRSLRLSCAASGFTFSNAWMHWVRQAPGKGLEWVAQIKDKGNAYAAYYAPSVKGRFTISRDDSKNSIYLQMNSLKTEDTAVYYCHYVHYASASTVLPAFGVDAWGQGTTVTVSS
VL: DIVMTQSPLSLPVTPGEPASISCQASQELVHMNRNTYLHWYQQKPGQAPRLLIYKVSNRFPGVPDRFSGSGSGTDFTLKISRVEAEDVGVYYCAQGTSMPFTFGQGTKLEIK
B11: H183/L072 VL V94T (antibody, name in Kabat numbering, V domains shown)
VH: QVQLVESGGGLVQPGRSLRLSCAASGFTFSNAWMHWVRQAPGKGLEWVAQIKDKGNAYAAYYAPSVKGRFTISRDDSKNSIYLQMNSLKTEDTAVYYCHYVHYASASTVLPAFGVDAWGQGTTVTVSS
VL: DIVMTQSPLSLPVTPGEPASISCQASQELVHMNRNTYLHWYQQKPGQAPRLLIYKVSNRFPGVPDRFSGSGSGTDFTLKISRVEAEDVGVYYCAQGTSTPFTFGQGTKLEIK
B12: H183/L072 VL V51Q (antibody, name in Kabat numbering, V domains shown)
VH: QVQLVESGGGLVQPGRSLRLSCAASGFTFSNAWMHWVRQAPGKGLEWVAQIKDKGNAYAAYYAPSVKGRFTISRDDSKNSIYLQMNSLKTEDTAVYYCHYVHYASASTVLPAFGVDAWGQGTTVTVSS
VL: DIVMTQSPLSLPVTPGEPASISCQASQELVHMNRNTYLHWYQQKPGQAPRLLIYKQSNRFPGVPDRFSGSGSGTDFTLKISRVEAEDVGVYYCAQGTSVPFTFGQGTKLEIK
B13: H183/L072 VL V94F (antibody, name in Kabat numbering, V domains shown)
VH: QVQLVESGGGLVQPGRSLRLSCAASGFTFSNAWMHWVRQAPGKGLEWVAQIKDKGNAYAAYYAPSVKGRFTISRDDSKNSIYLQMNSLKTEDTAVYYCHYVHYASASTVLPAFGVDAWGQGTTVTVSS
VL: DIVMTQSPLSLPVTPGEPASISCQASQELVHMNRNTYLHWYQQKPGQAPRLLIYKVSNRFPGVPDRFSGSGSGTDFTLKISRVEAEDVGVYYCAQGTSFPFTFGQGTKLEIK
B14: H183/L072 VL V94P (antibody, name in Kabat numbering, V domains shown)
VH: QVQLVESGGGLVQPGRSLRLSCAASGFTFSNAWMHWVRQAPGKGLEWVAQIKDKGNAYAAYYAPSVKGRFTISRDDSKNSIYLQMNSLKTEDTAVYYCHYVHYASASTVLPAFGVDAWGQGTTVTVSS
VL: DIVMTQSPLSLPVTPGEPASISCQASQELVHMNRNTYLHWYQQKPGQAPRLLIYKVSNRFPGVPDRFSGSGSGTDFTLKISRVEAEDVGVYYCAQGTSPPFTFGQGTKLEIK
B15: H183/L072 VL V94R (antibody, name in Kabat numbering, V domains shown)
VH: QVQLVESGGGLVQPGRSLRLSCAASGFTFSNAWMHWVRQAPGKGLEWVAQIKDKGNAYAAYYAPSVKGRFTISRDDSKNSIYLQMNSLKTEDTAVYYCHYVHYASASTVLPAFGVDAWGQGTTVTVSS
VL: DIVMTQSPLSLPVTPGEPASISCQASQELVHMNRNTYLHWYQQKPGQAPRLLIYKVSNRFPGVPDRFSGSGSGTDFTLKISRVEAEDVGVYYCAQGTSRPFTFGQGTKLEIK
B16: H183/L072 VL V94I (antibody, name in Kabat numbering, V domains shown)
VH: QVQLVESGGGLVQPGRSLRLSCAASGFTFSNAWMHWVRQAPGKGLEWVAQIKDKGNAYAAYYAPSVKGRFTISRDDSKNSIYLQMNSLKTEDTAVYYCHYVHYASASTVLPAFGVDAWGQGTTVTVSS
VL: DIVMTQSPLSLPVTPGEPASISCQASQELVHMNRNTYLHWYQQKPGQAPRLLIYKVSNRFPGVPDRFSGSGSGTDFTLKISRVEAEDVGVYYCAQGTSIPFTFGQGTKLEIK
B17: H183/L072 VL V94A (antibody, name in Kabat numbering, V domains shown)
VH: QVQLVESGGGLVQPGRSLRLSCAASGFTFSNAWMHWVRQAPGKGLEWVAQIKDKGNAYAAYYAPSVKGRFTISRDDSKNSIYLQMNSLKTEDTAVYYCHYVHYASASTVLPAFGVDAWGQGTTVTVSS
VL: DIVMTQSPLSLPVTPGEPASISCQASQELVHMNRNTYLHWYQQKPGQAPRLLIYKVSNRFPGVPDRFSGSGSGTDFTLKISRVEAEDVGVYYCAQGTSAPFTFGQGTKLEIK
B18: H183/L072 VL V94K (antibody, name in Kabat numbering, V domains shown)
VH: QVQLVESGGGLVQPGRSLRLSCAASGFTFSNAWMHWVRQAPGKGLEWVAQIKDKGNAYAAYYAPSVKGRFTISRDDSKNSIYLQMNSLKTEDTAVYYCHYVHYASASTVLPAFGVDAWGQGTTVTVSS
VL: DIVMTQSPLSLPVTPGEPASISCQASQELVHMNRNTYLHWYQQKPGQAPRLLIYKVSNRFPGVPDRFSGSGSGTDFTLKISRVEAEDVGVYYCAQGTSKPFTFGQGTKLEIK
B19: H183/L072 VL V51R (antibody, name in Kabat numbering, V domains shown)
VH: QVQLVESGGGLVQPGRSLRLSCAASGFTFSNAWMHWVRQAPGKGLEWVAQIKDKGNAYAAYYAPSVKGRFTISRDDSKNSIYLQMNSLKTEDTAVYYCHYVHYASASTVLPAFGVDAWGQGTTVTVSS
VL: DIVMTQSPLSLPVTPGEPASISCQASQELVHMNRNTYLHWYQQKPGQAPRLLIYKRSNRFPGVPDRFSGSGSGTDFTLKISRVEAEDVGVYYCAQGTSVPFTFGQGTKLEIK
B20: H183/L072 VL V94L (antibody, name in Kabat numbering, V domains shown)
VH: QVQLVESGGGLVQPGRSLRLSCAASGFTFSNAWMHWVRQAPGKGLEWVAQIKDKGNAYAAYYAPSVKGRFTISRDDSKNSIYLQMNSLKTEDTAVYYCHYVHYASASTVLPAFGVDAWGQGTTVTVSS
VL: DIVMTQSPLSLPVTPGEPASISCQASQELVHMNRNTYLHWYQQKPGQAPRLLIYKVSNRFPGVPDRFSGSGSGTDFTLKISRVEAEDVGVYYCAQGTSLPFTFGQGTKLEIK

Molecular target: T1, Human CD3eg linker
Assay: SPR; fold vs parent H183/L072

**Q.** How did the “fold change of affinity” value turn out when B1 was run?
**A.** 0.5 fold

**Q.** For B2, which “fold change of affinity” value is on record?
**A.** 0.9 fold

**Q.** B3 was tested. Which “fold change of affinity” value did it give?
**A.** 1 fold

**Q.** For B4, which “fold change of affinity” value is on record?
**A.** 0.4 fold

**Q.** For B5, which “fold change of affinity” value is on record?
**A.** 0.5 fold

**Q.** How did the “fold change of affinity” value turn out when B6 was run?
**A.** 0.2 fold

**Q.** With B7 as the binder, how does the “fold change of affinity” value read?
**A.** 0.3 fold

**Q.** For B8, which “fold change of affinity” value is on record?
**A.** 0.7 fold

**Q.** For B9, which “fold change of affinity” value is on record?
**A.** 0.8 fold

**Q.** With B10 as the binder, how does the “fold change of affinity” value read?
**A.** 0.8 fold

**Q.** With B11 as the binder, how does the “fold change of affinity” value read?
**A.** 1.3 fold

**Q.** For B12, which “fold change of affinity” value is on record?
**A.** 0.5 fold

**Q.** B13 was tested. Which “fold change of affinity” value did it give?
**A.** 0.2 fold

**Q.** With B14 as the binder, how does the “fold change of affinity” value read?
**A.** 1.5 fold

**Q.** Which “fold change of affinity” value does the source give for B15 here?
**A.** 0.5 fold

**Q.** Which “fold change of affinity” value does the source give for B16 here?
**A.** 0.8 fold

**Q.** B17 was tested. Which “fold change of affinity” value did it give?
**A.** 1 fold

**Q.** For B18, which “fold change of affinity” value is on record?
**A.** 0.4 fold

**Q.** For B19, which “fold change of affinity” value is on record?
**A.** 0.9 fold

**Q.** Which “fold change of affinity” value does the source give for B20 here?
**A.** 0.3 fold
